This assay addresses Histidine-tagged human CD40 protein (hCD40-His) (human) (UniProt P25942). Kind of assay: SPR, Biacore T200; antibody on Protein A chip, hCD40-His injected; 1:1 fit.

Usually Kd stands for the constant that tells how readily two partners part at equilibrium. Read a high Kd as weaker binding. A word on the koff: it is a measure of how fast the partners let go of each other. Lower therefore signals a long-lived complex. As a reminder, the kon is a measure of how fast the partners come together.

Chain of Histidine-tagged human CD40 protein (hCD40-His) (human) (P25942 21-193 limits assumed): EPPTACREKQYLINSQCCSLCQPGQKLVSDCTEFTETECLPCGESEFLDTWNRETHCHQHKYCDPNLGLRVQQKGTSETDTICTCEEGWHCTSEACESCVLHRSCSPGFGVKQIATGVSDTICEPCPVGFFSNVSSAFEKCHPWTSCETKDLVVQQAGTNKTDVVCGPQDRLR

B1: Dacetuzumab (antibody, part only; not given: constant regions, V domains shown, not shown: another chain or arm of the molecule)
VH: EVQLVESGGGLVQPGGSLRLSCAASGYSFTGYYIHWVRQAPGKGLEWVARVIPNAGGTSYNQKFKGRFTLSVDNSKNTAYLQMNSLRAEDTAVYYCAREGIYWWGQGTLVTVSS
VL: DIQMTQSPSSLSASVGDRVTITCRSSQSLVHSNGNTFLHWYQQKPGKAPKLLIYTVSNRFSGVPSRFSGSGSGTDFTLTISSLQPEDFATYFCSQTTHVPWTFGQGTKVEIK
Molecule B1 gave a Kd of 20 nM, a koff of 0.00833 s⁻¹ and a kon of 417000 M⁻¹ s⁻¹.
